Measurements from the supplement of paper PMC10724198.
± gives the standard deviation of the averaged measurements.
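Note: PSI is a weighted mean of sequencing reads over stability bins, variants kept only with over 10 reads, mCherry proximal and sfGFP distal, peptide attached via GGGS linker.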

These sequences were tested on Saccharomyces cerevisiae (assay: protein stability index of tFT-peptide fusion (C-terminal peptide) (PSI (0-1 scale)); higher = more stable (slower turnover)). Settings: genetic background: wild type; temperature: 30 C.
Protocol: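 Multiplexed protein stability (MPS) profiling in S. cerevisiae. Random 12-aa peptides (tFT-X12 library) are fused to the C-terminus of a sfGFP-mCherry tandem fluorescent timer, after mCherry and a GGGS linker. Cells are FACS-sorted into 8 mCherry/sfGFP bins and deep-sequenced. The protein stability index (PSI) is the read-weighted bin average, scaled from 0 (unstable) to 1 (stable). Only peptides with >10 reads are reported; cells were grown at 30 °C in SC-His with glucose.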
DTFLGSLFIFIR was tested, and the protein stability index was 0.522 ± 0.011. With DTSENSVKFTKV the protein stability index was 0.733 ± 0.075. For DTVTGNWGVGLG, the protein stability index was 0.657 ± 0.02. With DTWRADKRGMKV the protein stability index was 0.662 ± 0.052. With DVAEAGPRPPPT the protein stability index was 0.755 ± 0.091. Work on DVFCFWCVSGFV yielded a protein stability index of 0.651 ± 0.082. Work on DVGISICLLHGA yielded a protein stability index of 0.6664 ± 0.002. With DVGIVPGVFWWV the protein stability index was 0.738 ± 0.054. DVISRSTRIMGE was tested, and the protein stability index was 0.617 ± 0.018. With DVLESPVLYPTN the protein stability index was 0.70948 ± 7.6e-05. DVSSRDLCWLVC was tested, and the protein stability index was 0.6422 ± 0.0052. DVVFRLAFTDFC showed a protein stability index of 0.693 ± 0.021. DVVGRGRGPVRL was tested, and the protein stability index was 0.802 ± 0.033. For DVYFHTRSCGTP, the protein stability index was 0.688 ± 0.016. For DVYLVGLGVWSS, the protein stability index was 0.668 ± 0.035. DWVLGRRDTRKP was tested, and the protein stability index was 0.752 ± 0.025. For DWYSGVTYGPCS, the protein stability index was 0.78 ± 0.062. DYRTLGPAPDKS showed a protein stability index of 0.74 ± 0.035. EAGRRVGARRVG showed a protein stability index of 0.689 ± 0.059. With EAKKKKRRDRKE the protein stability index was 0.621 ± 0.029. With EALKCFADAYTC the protein stability index was 0.661 ± 0.063. In the case of EAQWRGVRHHSR, the protein stability index is reported as 0.641 ± 0.036. EARRGTAGGQKK was tested, and the protein stability index was 0.626 ± 0.039. For EASSRITFGLII, the protein stability index was 0.698 ± 0.041. For ECGAGRVYGDPW, the protein stability index was 0.652 ± 0.063. EEGAGLLWSAVG showed a protein stability index of 0.641 ± 0.014. Work on EEGVARYVERWV yielded a protein stability index of 0.675 ± 0.0075. For EERGESRGWRVK, the protein stability index was 0.604 ± 0.045. EERHAEPRNCMF gave a protein stability index of 0.773 ± 0.015. With EEVAISFFFLSL the protein stability index was 0.468 ± 0.055. Work on EEWGSLEWTAGR yielded a protein stability index of 0.778 ± 0.019. In the case of EEYFFVNLFFAS, the protein stability index is reported as 0.752 ± 0.085. Sequence EGACPFLSFRGF has a protein stability index of 0.658 ± 0.024. EGGESRGKGYRS showed a protein stability index of 0.691 ± 0.025. In the case of EGGGAGGLMRPE, the protein stability index is reported as 0.65 ± 0.016. EGGGGGAGDARR gave a protein stability index of 0.685 ± 0.017. EGGGGVEGAAWG gave a protein stability index of 0.694 ± 0.022. Sequence EGGGWGRYDGFG has a protein stability index of 0.69378 ± 9.6e-05. Sequence EGGPRTGGRGSR has a protein stability index of 0.67 ± 0.035. EGHREARGGMAR gave a protein stability index of 0.673 ± 0.018. Work on EGINVEICISLL yielded a protein stability index of 0.573 ± 0.083. With EGMENECDLRIK the protein stability index was 0.74 ± 0.066. With EGPPYSRYKGGS the protein stability index was 0.645 ± 0.11. Work on EGRGQRGARAAQ yielded a protein stability index of 0.7181 ± 0.0034. For EGVSNGCAILLF, the protein stability index was 0.673 ± 0.029. For EGWPGGRGGAGL, the protein stability index was 0.614 ± 0.032. EIGWEGLEGRGG was tested, and the protein stability index was 0.756 ± 0.11. For EIGWTEGGECVG, the protein stability index was 0.632 ± 0.051. In the case of EKGAEGDHGEVR, the protein stability index is reported as 0.678 ± 0.017. Sequence EKGRVGLKIIKE has a protein stability index of 0.695 ± 0.038. With EKGWFDLGGCQV the protein stability index was 0.723 ± 0.035. EKHLKKEIQIKK was tested, and the protein stability index was 0.76 ± 0.07. For EKIRGFPGEIGE, the protein stability index was 0.694 ± 0.022. For EKKKEKHKDQEK, the protein stability index was 0.692 ± 0.055. With EKKKKENKVKRF the protein stability index was 0.664 ± 0.013. Sequence EKKKKNKNQEKQ has a protein stability index of 0.671 ± 0.044. EKKKNKTQLKTK was tested, and the protein stability index was 0.667 ± 0.024. In the case of EKKNGKEKEKER, the protein stability index is reported as 0.6647 ± 0.0062. Work on EKKRQKKQKTGK yielded a protein stability index of 0.67136 ± 0.00051. EKKTNEKNSYNL was tested, and the protein stability index was 0.659 ± 0.016. For EKPIPFCSSVAS, the protein stability index was 0.713 ± 0.063. For EKVWTLTGLSHL, the protein stability index was 0.722 ± 0.04. In the case of EKYGKKIRRKNR, the protein stability index is reported as 0.766 ± 0.11. ELELDRTEWVTI showed a protein stability index of 0.799 ± 0.05. ELFGSGERRVVV gave a protein stability index of 0.68 ± 0.014. With ELGVGVLDRGCL the protein stability index was 0.608 ± 0.22. In the case of ELLTCSSSVMLL, the protein stability index is reported as 0.799 ± 0.026. ELPECEHLTSLT showed a protein stability index of 0.691 ± 0.068. Work on ELRCEMEFWCER yielded a protein stability index of 0.594 ± 0.0066. Work on ELRSYAGMSGFN yielded a protein stability index of 0.736 ± 0.014. In the case of ELSARVCLGSLF, the protein stability index is reported as 0.676 ± 0.015. With ELVRIVREEYRC the protein stability index was 0.685 ± 0.1. With EMGGLKACRGGG the protein stability index was 0.553 ± 0.026. For EMGTTMATPCDH, the protein stability index was 0.681 ± 0.0073. In the case of ENGRRTDKKVST, the protein stability index is reported as 0.687 ± 0.023. ENNWILSIKEKT showed a protein stability index of 0.747 ± 0.02. ENQGQKQKKKKR was tested, and the protein stability index was 0.753 ± 0.046. With ENQGQSYVTMRY the protein stability index was 0.725 ± 0.046. EPESPVTARAKP gave a protein stability index of 0.672 ± 0.031. Sequence EPLLVSPATPNL has a protein stability index of 0.7311 ± 0.00091. For EPMHTLKSIITH, the protein stability index was 0.635 ± 0.073. Work on EPNKGTNMKVND yielded a protein stability index of 0.705 ± 0.048. Work on EPNSPTYLSMLI yielded a protein stability index of 0.637 ± 0.018. EQGAGFWVGGEV was tested, and the protein stability index was 0.757 ± 0.099. For EQSERINKKARK, the protein stability index was 0.67 ± 0.063. Work on EQSWEVWGRGQG yielded a protein stability index of 0.744 ± 0.022. Sequence ERAGPGGARRVD has a protein stability index of 0.696 ± 0.018. For ERALYGFSSIFY, the protein stability index was 0.667 ± 0.075. For ERASGNWQVYKG, the protein stability index was 0.639 ± 0.011. Work on EREREKGEEEEG yielded a protein stability index of 0.629 ± 0.0079. In the case of ERERREGEGKRQ, the protein stability index is reported as 0.721 ± 0.023. For ERGGLGLSRCVS, the protein stability index was 0.663 ± 0.077. ERHTASGHLLFV gave a protein stability index of 0.729 ± 0.14. Sequence ERLKRNKKSTNG has a protein stability index of 0.726 ± 0.018. ERMLHGTATSVW showed a protein stability index of 0.736 ± 0.046. For ERRGRDRSQTLR, the protein stability index was 0.715 ± 0.014. Work on ERRKKKRGQETQ yielded a protein stability index of 0.655 ± 0.12. ERRPTYFFHDHE showed a protein stability index of 0.693 ± 0.055. ERRPYVAGRRRF was tested, and the protein stability index was 0.6722 ± 0.0049. ERSQTKIANDKK gave a protein stability index of 0.719 ± 0.042. ERSVSDSHERID gave a protein stability index of 0.678 ± 0.05. ESASSLNFTSLM showed a protein stability index of 0.731 ± 0.053. ESCIKGCSGVVS showed a protein stability index of 0.651 ± 0.06. ESCLVSKFDVIV showed a protein stability index of 0.656 ± 0.052. In the case of ESIEVGTGDWGG, the protein stability index is reported as 0.673 ± 0.053. With ESKERKTRKLKK the protein stability index was 0.677 ± 0.048. Work on ESLAKLPLRRPR yielded a protein stability index of 0.63 ± 0.011. For ESLFFPFAFSSV, the protein stability index was 0.809 ± 0.13. With ESQYAIFGHDIW the protein stability index was 0.709 ± 0.011. Sequence ESRVLYGLCLWC has a protein stability index of 0.596 ± 0.028. Sequence ESSQLELRGGGR has a protein stability index of 0.725 ± 0.0047. Work on ESVVKNDVTYVQ yielded a protein stability index of 0.691 ± 0.041. Work on ETEGSSSLGTRI yielded a protein stability index of 0.661 ± 0.021. ETHRANTRMERL was tested, and the protein stability index was 0.726 ± 0.049. ETKEAKKKTIDS showed a protein stability index of 0.7217 ± 0.0065. ETLEKYGDPMRD gave a protein stability index of 0.624 ± 0.0088. Sequence ETSRTYGNFPIT has a protein stability index of 0.774 ± 0.11. With EVCTFPGSIRSS the protein stability index was 0.521 ± 0.023. EVGHLILYKIGC was tested, and the protein stability index was 0.648 ± 0.017. For EVGLGAAGLSGP, the protein stability index was 0.749 ± 0.031. EVGVRCRVGVWV was tested, and the protein stability index was 0.567 ± 0.029. EVIRFMEKLPFR was tested, and the protein stability index was 0.589 ± 0.025. With EVYTWTGNMWNI the protein stability index was 0.673 ± 0.095. For EWGAGGGVWGLG, the protein stability index was 0.7684 ± 0.0069. With EWMIHQFCRVPV the protein stability index was 0.62 ± 0.0097. EWVTRQFEGWEG was tested, and the protein stability index was 0.7474 ± 0.0021. EYFLGPLVRLGR was tested, and the protein stability index was 0.762 ± 0.11. EYRTAIYFQSLL gave a protein stability index of 0.701 ± 0.076. Work on FAALACKSRLEF yielded a protein stability index of 0.685 ± 0.03. FAFQAHWGCRDF showed a protein stability index of 0.703 ± 0.053. With FAHSPPPHLSVR the protein stability index was 0.624 ± 0.014. FAISPCVSLAFF gave a protein stability index of 0.642 ± 0.05. Sequence FALSSLTFPLPT has a protein stability index of 0.744 ± 0.094. With FALWAGGTWFRT the protein stability index was 0.656 ± 0.013. With FARLTSSQGGKD the protein stability index was 0.68 ± 0.025. FAVLGGGGGGGW showed a protein stability index of 0.711 ± 0.0097. In the case of FCAVRYLVEGRV, the protein stability index is reported as 0.533 ± 0.0064. FCIDSLNSFCFV gave a protein stability index of 0.643 ± 0.057. In the case of FCLSIFYRAFFD, the protein stability index is reported as 0.537 ± 0.024. FCLSVVELRGLM gave a protein stability index of 0.672 ± 0.049. With FCRTSGSVGDHV the protein stability index was 0.721 ± 0.017. FCYVEDLSVSVD was tested, and the protein stability index was 0.611 ± 0.0068. Sequence FDNPFQATTATK has a protein stability index of 0.823 ± 0.16. FDVYIKVRGGDI was tested, and the protein stability index was 0.64 ± 0.024. FEDIPSMEYRSI showed a protein stability index of 0.702 ± 0.05. With FEHFKCRRRPVI the protein stability index was 0.723 ± 0.044. FETGPGSCTACA was tested, and the protein stability index was 0.68 ± 0.0099. For FFFECPCWLGVF, the protein stability index was 0.542 ± 0.019. Work on FFGGAGVTEGLG yielded a protein stability index of 0.683 ± 0.043. FFLLLCSSCFGV gave a protein stability index of 0.583 ± 0.021. In the case of FFNFVYYFTTPR, the protein stability index is reported as 0.635 ± 0.019. FFPFFLSFSPPF gave a protein stability index of 0.708 ± 0.023. In the case of FFPLPPSSPPSP, the protein stability index is reported as 0.7184 ± 0.0069. FFPPAHFAPQPA gave a protein stability index of 0.719 ± 0.015. Work on FFPPLLSFPPTD yielded a protein stability index of 0.7189 ± 0.0044.
